The values that follow come from patent US20200393470A1 (Regeneron, published 2020).

The target in experiment [1] is T1, human ANGPTL8 (human, UniProt Q6UXH0 22-198).
T1 construct: also called hANGPTL8; Angiopoietin-like protein 8
T1 sequence: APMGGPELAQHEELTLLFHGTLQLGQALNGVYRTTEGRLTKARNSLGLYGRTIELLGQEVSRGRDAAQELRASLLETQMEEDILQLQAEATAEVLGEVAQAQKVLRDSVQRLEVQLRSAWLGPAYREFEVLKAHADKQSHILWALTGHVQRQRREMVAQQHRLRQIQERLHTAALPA
The experiment in a line: sandwich ELISA on ex vivo serum samples. As to the method:
(§1) Proteins and mAbs stored at −80° C. were thawed and kept on ice, as they were needed. The wells of the ELISA plate were coated with capture mAb, at a concentration of 4 μg/mL in PBS, and a volume of 100 μL/well. The plate was covered with a plate sealer, and stored at 4° C. overnight (approximately 18 hours). The wells of the plate were then washed with 350 μL/well wash buffer (0.1% Tween-20 in PBS), for a total of 3 washes, using an automated plate washer. Excess wash remnants were removed by inverting and tapping the plate against clean paper towels. Blocking buffer (1% Fraction V BSA in PBS) was added at 300 μL/well. The plate was covered with a plate sealer, and placed on a plate shaker at room temperature, shaking at 300 rpm for a minimum of 1 hour.
(§2) After the blocking period, the wells of the ELISA plate were washed again, and excess wash remnants were removed, as previously described. The standards and the diluted samples were added to the plate in duplicate, with 100 μL/well. The plate was covered with a plate sealer and placed on a plate shaker at room temperature, shaking at 500 rpm for 2 hours. The wells of the ELISA plate were washed again, and excess wash remnants were removed, as previously described. The detection mAb was added at a concentration of 400 ng/mL in assay diluent (1% Fraction V BSA/0.1% Tween-20 in PBS), with 150 μL/well. […]
In general terms: In an ELISA, binding on a coated surface is turned into a signal by an enzyme label.

Experiment [2] has as its target T2, human ANGPTL8 dimer protein with mouse Fc tag (human, UniProt Q6UXH0 22-198).
T2 construct: also called hANGPTL8.mFc; dimer form of human ANGPTL8; not shown: mouse Fc tag
T2 sequence: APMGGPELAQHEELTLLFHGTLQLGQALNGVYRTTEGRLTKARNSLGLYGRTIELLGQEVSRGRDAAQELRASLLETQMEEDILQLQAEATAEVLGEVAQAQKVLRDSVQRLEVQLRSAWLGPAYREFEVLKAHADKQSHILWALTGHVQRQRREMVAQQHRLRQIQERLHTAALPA
The experiment in a line: sandwich ELISA, capture mAb, dimer (mFc) standard. As to the method:
as §1, §2

Experiment [3] addresses T1, human ANGPTL8. The experiment is described as follows: immunoprecipitation from cell conditioned media, Western blot. As to the method:
The selection process involved performing a series of immunoprecipitations (IPs), in which each mAb was incubated with cell conditioned media (CM) containing the human ANGPTL8 protein. A resin that identifies human IgG4 was then applied to the mAb/CM mixtures. The resin beads targeted the mAbs, binding the mAb-human ANGPTL8 complex. A series of Western blots probing for human ANGPTL8 were run on the various fractions of the IPs, and anti-human ANGPTL8 mAbs were selected based on high human ANGPTL8 expression in the IP fractions, with low human ANGPTL8 expression in the unbound fractions.
On the technique in general: A western blot detects proteins with antibodies after separation by electrophoresis.

Experiment [4] addresses T2, human ANGPTL8 dimer protein with mouse …. The experiment is described as follows: sandwich ELISA, biotinylated detection mAb, dimer (mFc) standard. The method, then:
as §1, §2

B1: H4H15347P (antibody, human IgG4, V domains shown)
VH: EVQLVESGGGLVQPGGSLRLSCAASGFTFRNYAMNWARQAPGKGLEWVSGITGSGGATYYADSVKGRFTISRENSKNTLFLQMDTLRAEDTAVYYCAKDRRYFPTSGGPQWGQGTLVTVSS
VL: DIVMTQSPLSLPVTPGEPASISCRSSRSLLHSSGYNYLDWYLQKPGQSPQLLLYLGSNRASGVPDRFSGSGSGTYFTLKISRVDAEDVGVYYCMQALQTPWTFGQGTKVEIK
notes: Capture mAb of the final ELISA; also called anti-human C19orf80 (ANGPTL8) (H4H15347P); biotinylated-H4H15347P
On to B1, for which the binding result in experiment [1] and in experiment [2] was “binds” throughout.

B2: H4H15318P (antibody, V domains shown)
VH: QVQLVESGGGVVQPGRSLRLSCTASGFTFGNFGIHWVRQAPGKGLEWVAVISYDGTDKFYADPVKGRFIISRDNSMNILYLQMNSLRAEDTAVYYCAKDGEMELRGYYYYYGMDVWGQGTTVTVSS
VL: DIQMTQSPSSVSASVGDRVTITCRASQGINTWLAWYQQKPGTAPKLLIFAASSLESGVPSRFSGSGFGTDFTLTISSLQSEDLATYFCQQVHSPPYTFGQGTKLEIK
notes: Used unlabelled in the immunoprecipitation and as capture mAb, and biotinylated as detection mAb in the sandwich ELISA; also called biotin-H4H15318P; biotinylated anti-human C19orf80 (ANGPTL8) (biotin-H4H15318P)
For the molecule B2, the binding result in experiment [3] and in experiment [4] was “binds” in each case.

B3: H4H15361P2 (antibody, human IgG4, V domains shown)
VH: EVQLVESGGGLVQPGRSLRLSCTASGFSFGDNAMGWVRQAPGKGLEWVSFIRRKASGGTTEYAASVKGRFTISRDDSKSIAYLQMNSLKTEDTGVYYCTRGGAVYGYWGQGTLVTVSS
VL: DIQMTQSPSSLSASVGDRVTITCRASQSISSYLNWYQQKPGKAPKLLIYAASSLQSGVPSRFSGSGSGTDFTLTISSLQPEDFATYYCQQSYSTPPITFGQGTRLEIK
notes: also called anti-human C19orf80 (ANGPTL8) (H4H15361P2); biotinylated-H4H15361P2
Turning to B3, the binding result in experiment [1] and in experiment [2] was “binds” each time.

B4: H4H15341P (antibody, human IgG4, V domains shown)
VH: EVQLVESGGGLVQPGGSLRLSCAASGFTFNNHEMNWVRQAPGKGLEWVSYISSSGNTVTYADFLKGRFTISRDNAKNSLFLQMNSLRDEDTAVYYCARDHLSGTSPLSYWGQGTLVTVSS
VL: DIQMTQSPSSLSASVGDRVTITCQASQDINNYLNWFQQKPGKAPKLLIFDASNLETGVPSRFSGSGSGTDFTFTISSLQPEDIATYFCQQYENLPYTFGQGTKLEIK
notes: also called biotinylated-H4H15341P
With B4, in experiment [3], the binding result is reported as “binds”.
